Laboratory results as given in US20230346916A1.

Assays:
[1] = biological target: soluble human DPP4 (sDPP4) receptor (human) (UniProt P27487); assay: ELISA, RBD-Fc coated at 1 µg/ml, sDPP4 serially diluted
[2] = biological target: bat ACE2 (bACE2) receptor transiently expressed on 293T cells (bat)

Sequence of soluble human DPP4 (sDPP4) receptor (human) (P27487 39-766 limits assumed): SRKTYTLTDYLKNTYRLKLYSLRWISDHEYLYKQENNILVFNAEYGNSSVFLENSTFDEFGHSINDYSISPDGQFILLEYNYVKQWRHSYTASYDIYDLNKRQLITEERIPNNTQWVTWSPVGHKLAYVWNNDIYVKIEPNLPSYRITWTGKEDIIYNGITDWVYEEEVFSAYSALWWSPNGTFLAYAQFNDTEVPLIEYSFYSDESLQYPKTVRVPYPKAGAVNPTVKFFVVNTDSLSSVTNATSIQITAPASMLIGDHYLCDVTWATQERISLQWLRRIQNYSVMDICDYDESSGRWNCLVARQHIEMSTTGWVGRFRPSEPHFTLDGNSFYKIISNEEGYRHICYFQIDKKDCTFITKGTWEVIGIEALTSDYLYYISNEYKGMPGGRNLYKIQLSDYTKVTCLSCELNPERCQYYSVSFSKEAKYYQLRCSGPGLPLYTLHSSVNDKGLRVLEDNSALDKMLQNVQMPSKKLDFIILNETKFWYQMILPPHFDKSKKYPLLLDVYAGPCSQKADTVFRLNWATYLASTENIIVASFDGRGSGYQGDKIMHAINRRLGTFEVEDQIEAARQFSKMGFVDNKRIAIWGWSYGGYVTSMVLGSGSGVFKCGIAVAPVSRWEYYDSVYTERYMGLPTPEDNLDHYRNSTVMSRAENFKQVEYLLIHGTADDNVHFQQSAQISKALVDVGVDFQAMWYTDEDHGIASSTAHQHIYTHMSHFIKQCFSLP

## MERS-CoV RBD-Fc fusion protein (residues 377-588 of MERS-CoV S protein with a C-terminal hFc) (from UniProt K9N5Q8 377-588)
[1]
  EC50: 0.92 µg/mL

## SARS-CoV RBD-Fc fusion protein (residues 318-510 of SARS-CoV S protein with a C-terminal hFc) (from UniProt P59594 318-510)
[2]
  EC50: 0.96 µg/mL
